In test [1] the target is T1, HGREM1-His (ACRO) (human, UniProt O60565 25-184).
T1 construct: Lys25-Asp184 of NP_037504 with C-terminal polyhistidine tag (ACRO GR1-H52H3); they are put here; also called hGREM1 (ACRO); human gremlin (ACRO)
T1 sequence: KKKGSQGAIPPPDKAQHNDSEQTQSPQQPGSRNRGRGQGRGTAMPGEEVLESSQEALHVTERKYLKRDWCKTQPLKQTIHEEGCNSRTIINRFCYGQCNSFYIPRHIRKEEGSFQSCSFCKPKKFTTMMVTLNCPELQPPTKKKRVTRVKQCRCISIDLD
Nature of the test: ELISA on coated Gremlin-his (column Gremlin). As to the method:
Binding affinities to hGREM1 and XM5 were also compared. Briefly, XM5-Fc or Gremlin-his […] was coated. 100 μl of block solution consisting of PBS+1% BSA+1% normal goat serum+0.5% Tween 20 (Sigma) was added to each well and incubated at room temperature for 2 hours. 4-fold serial antibody dilution from 2 μg/ml were added. Afterward the plates were washed three times with 200 ul of PBS+0.1% Tween20 followed by adding 100 μl/well 1:10000 Goat anti mouse IgG-HRP (abeam), and incubate for 1 hour at room temperature. They were then washed 3× with PBS+0.1% Tween20. Finally, 100 μl/well of TMB (InnoReagents) was added to each well and after 2 minutes add 50 ul of stop solution to each well. The plates were read on a Multiscan FC microplate reader (Thermo Scientific) at […]. The EC50 values were show in table below.

The target of test [2] is T1, HGREM1-His (ACRO). Description: competition ELISA, Gremlin-his binding to coated BMP7.
The target of test [3] is T2, Mouse Gremlin-His (R&D) (mouse, UniProt O70326 25-184).
T2 construct: Lys25-Asp184 with 10xHis, R&D 956-GR; also called mouse gremlin (R&D); mGREM1
T2 sequence: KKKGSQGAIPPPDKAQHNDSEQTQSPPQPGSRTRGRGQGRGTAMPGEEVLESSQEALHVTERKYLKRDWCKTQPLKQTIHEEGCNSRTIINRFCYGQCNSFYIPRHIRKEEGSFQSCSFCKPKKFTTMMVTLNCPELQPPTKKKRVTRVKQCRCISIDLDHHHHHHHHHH
Nature of the test: ELISA, coated mouse gremlin (R&D). As to the method:
Clear polystyrene plates (BEAVER) were coated with 100 μl/well of a […] hGREM1 (ACRO) and mouse gremlin (R&D) in high pH coating buffer overnight at 4° C. Then the plates were washed once on an automatic plate washer using PBS+0.1% Tween 20 (Sigma). 100 μl of block solution consisting of PBS+1% BSA+1% normal goat serum+0.5% Tween 20 (Sigma) was added to each well and incubated at room temperature for 2 hours. Then 100 μl of antibodies in antibody dilution buffer containing PBS+1% BSA+1% normal goat serum+0.01% Tween 20 starting from 2 μg/ml and then serial dilutions were added to each well of the plate and incubated for 1 hours at room temperature. Afterward the plates were washed three times with 200 μl of PBS+0.1% Tween20 followed by adding 100 μl/well 1:10000 Goat anti mouse IgG-HRP (abcam), and incubate for 1 hour at room temperature. They were then washed 3× with PBS+0.1% Tween20. Finally, 100 µl/well of TMB (Pierce) was added to each well and after several minutes add 50 μl of stop solution to each well. The plates were read on a Multiscan FC microplate reader (Thermo Scientific) at […].
For orientation: ELISA stands for enzyme-linked immunosorbent assay.

B1: 36F5 (antibody, V domains shown)
VH: QVQLQQSGAELARPGASVKLSCKASGYSFTSSGIGWVKQRSGQGLEWIGEIYPRSGNTYNNEKFKGKATLTADKSSSTVYMELRSLTSEDSAVYFCVREAYSHHYYAMDYWGQGTSVTVFS
VL: DVLMTQTPLSLPVSLGGQASISCRSSQSLLHSNGNTYLEWYLQKPGQSPKLLIYKVSNRFSGVPDRLSGSGSGTDFTLKISRVEAEDLGVYYCFQGSHVPFTFGSGTKLEIN
notes: mouse hybridoma antibody; also called hybridoma 36F5
One may read the EC50 as the concentration giving half of the maximal effect. Lower therefore signals a more potent agent. As to B1, the figures for the EC50 in test [1] and in test [3] were 14.8 ng/mL and 4.56 ng/mL, respectively. Also, the maximal blocking percentage in test [2] is no less than 50%.

The record behind these values is patent US20240294622A1 (SUZHOU TRANSCENTA THERAPEUTICS, published 2024).
